Experimental data reported in patent US7056715B1, “GST sequences from soybean and their use in the production of herbicide resistant plants” (Syngenta Limited, priority 1999, dated 2006).

B1: GST 2.6: Recombinant soybean Glutathione-S-transferase 2.6, SEQ ID No. 7 (protein)
chain: MSSSQEEVTLLGVVGSPFLHRVQIALKLKGVEYKYLEDDLNNKSDLLLKYNPVYKMIPVLVHNEKPISESLVIVEYIDDTWKNNPILPSDPYQRALARFWAKFIDDKCVVPAWKSAFMTDEKEKEKAKEELFEALSFLENELKGKFFGGEEFGFVDIAAVLIPIIQEIAGLQLFTSEKFPKLSKWSQDFHNHPVVNEVMPPKDQLFAYFKARAQSFVAKRKN
modifications: Glycine max
B2: GST 3.3: Recombinant soybean Glutathione-S-transferase 3.3, SEQ ID No. 10; may also be referred to as GST 3.6 (protein)
chain: MAERDLRLLGAWFSPFALRVQIALNLKGLDYEVVEETLNPKSELLLKSNPVHKKIPVFFHGDKVICESAIIVEYIDEVWSNNALSILPQNAYDRANARFWVSYIDDKWLTSLKSVLATEDDEAKKLHFEQAEEVLEKVEEVFNKCSEGKAYFGGDTIGFVDIGFGSFLSFIRVSENMNERKLLDETKYPGLTLWAETFAADPAVKGLLPETEKLVEFAKILQLKWAAAAAAK
modifications: Glycine max
B3: GST 3.1: Recombinant soybean Glutathione-S-transferase 3.1, SEQ ID No. 8 (protein)
chain: MAEQDKVILHGMWASPYAKRVELALNFKGIPYEYVEEDLRNKSDLLLKYNPVHKKVPVLVHNGKAIAESMVILEYIDETWKDGPKLLPSDSYKRAQARFWCHFIQDQLMESTFLVVKTDGEAQQKAIDHVYEKLKVLEDGMKTYLGEGNAIISGVENNFGILDIVFCALYGAYKAHEEVIGLKFIVPEKFPVLFSWLMAIAEVEAVKIATPPHEKTVGILQLFRLSALKSSSATE
modifications: Glycine max

What was measured:
Assay type in all cases: biochemical
[1] = GST activity of purified recombinant protein toward CDNB; conditions: recombinant enzyme, ±SE, n=2; for GST activity toward CDNB, GSH: thiol GSH; for GST activity toward CDNB, hGSH: thiol hGSH
Method: (§1) 4.2 Nde I or Nco I sites were introduced as appropriate into the 5′ end cDNAs encoding glutathione S-transferase and Bam H1 at the 3′ end using PCR. The cDNA was then cloned into pET-24a or pET-24d as appropriate. The resulting plasmids were introduced into E. coli BL21 (DE3) using standard bacterial transformation procedures known to the skilled artisan. Expression and purification of the recombinant GST was performed using anion-exchange chromatography and S-Hexyl-glutathione affinity chromatography according to the methods known in the art (for example, Skipsey et al., 1997). GST activity of the purified recombinant protein toward CDNB, acetochlor, acifluorfen, chlorimuron-ethyl, fluorodifen. fomesafen and metolachlor in the presence of both glutathione and homoglutathione was performed via assays which are described in Andrews et al., 1997 and Skipsey et al., 1997.

[2] = GST activity of purified recombinant protein toward acetochlor; conditions: recombinant enzyme, ±SE, n=2; for GST activity toward acetochlor, GSH: thiol GSH; for GST activity toward acetochlor, hGSH: thiol hGSH
Method: as §1

[3] = GST activity of purified recombinant protein toward acifluorfen; conditions: recombinant enzyme, ±SE, n=2; for GST activity toward acifluorfen, hGSH: thiol hGSH; for GST activity toward acifluorfen, GSH: thiol GSH
Method: as §1

[4] = GST activity of purified recombinant protein toward fluorodifen; conditions: recombinant enzyme, ±SE, n=2; for GST activity toward fluorodifen, hGSH: thiol hGSH; for GST activity toward fluorodifen, GSH: thiol GSH
Method: as §1

[5] = GST activity of purified recombinant protein toward fomesafen; conditions: recombinant enzyme, ±SE, n=2; for GST activity toward fomesafen, GSH: thiol GSH; for GST activity toward fomesafen, hGSH: thiol hGSH
Method: as §1

[6] = GST activity of purified recombinant protein toward metolachlor; conditions: recombinant enzyme, ±SE, n=2; for GST activity toward metolachlor, GSH: thiol GSH; for GST activity toward metolachlor, hGSH: thiol hGSH
Method: as §1

Row | Molecule | GST activity toward CDNB, GSH [1] [nkat mg-1] | GST activity toward CDNB, hGSH [1] [nkat mg-1] | GST activity toward acetochlor, GSH [2] [pkat mg-1] | GST activity toward acetochlor, hGSH [2] [pkat mg-1] | GST activity toward acifluorfen, hGSH [3] [pkat mg-1] | GST activity toward fluorodifen, hGSH [4] [pkat mg-1] | GST activity toward fomesafen, GSH [5] [pkat mg-1] | GST activity toward fomesafen, hGSH [5] [pkat mg-1] | GST activity toward metolachlor, GSH [6] [pkat mg-1] | GST activity toward metolachlor, hGSH [6] [pkat mg-1] | GST activity toward acifluorfen, GSH [3] [pkat mg-1] | GST activity toward fluorodifen, GSH [4] [pkat mg-1]
1 | B1 | 18.7 | 19.0 | 352.5 | 391.0 | 31.1 | 19.3 | 27.1 | 350.5 | 142.0 | 95.5 | – | –
2 | B2 | 82.9 | 189.0 | 420.0 | – | 1350 | 602.5 | 110 | 6250 | 312.0 | 264.5 | 123.0 | 360.5
3 | B3 | 59.2 | 59.2 | 190.5 | 11.0 | 238.5 | 1350 | 213.6 | 484.6 | 177.5 | 67.5 | 152.5 | 1150
